Measurements taken from patent publication US20050048070A1.

B1: human monoclonal IgM antibody COU-1 (antibody, V domains shown)
VH: GAEVKKPGASVKVSCKASDYTFSSYYMHWVRQAPGQGLEWMGIINPSGGSTSYAQKFQGRVTMTRDTSTNTVYMELSSLRSEDTAVYYCARDQVVVAATLSNYGMDVWGQGTTVTVSS
VL: ELTQSPGTLSLSPGERATLSCRASQSVSSSYLAWYQQKPGQAPRLLIYDASNRATGIPARFSGSGSGTDFTLTISSLEPEDFAVYYCQQGTNWGIAFGQGTRLDIKR
B2: recombinant B9165 Fab (Fab, V domains shown)
VH: B1 VH
VL: B1 VL

Experiments:
[1] = biological target: lysate of the colon cancer cell line colon 137 (COU-1 antigen positive); experiment: ELISA on coated colon 137 lysate
[2] = biological target: K8(1-124)/intact K18 heterotypic complex (human) (UniProt P05787); experiment: SPR (BIAcore), complex immobilized, COU-1 injected
[3] = biological target: K8(1-124)/K18(1-124) heterotypic complex (human) (UniProt P05787); experiment: SPR (BIAcore), complex immobilized, COU-1 injected

Row | Binder | concentration needed for saturation [1] | Ka [2] | Kd [2] | koff [2] | kon [2] | Ka [3] | Kd [3] | koff [3] | kon [3]
1 | B1 | 1 µg/mL | 1.4e+09 M⁻¹ | 0.71 nM | 0.00012 s⁻¹ | 170000 M⁻¹ s⁻¹ | 9.5e+08 M⁻¹ | 1.05 nM | 0.0003 s⁻¹ | 280000 M⁻¹ s⁻¹
2 | B2 | 20 µg/mL |  |  |  |  |  |  |  | 
